Measured values reported in paper doi:10.1101/2023.01.30.525828, “A versatile synaptotagmin-1 nanobody provides perturbation-free live synaptic imaging and low linkage-error in super-resolution microscopy” (bioRxiv, 2023).

Columns and labels:
[1] = biological target: T1, desthio-biotinilated Syt-1(97-421) (Rattus norvegicus (Rat)., UniProt P21707, desthiobiotin (conjugated with desthiobiotin-N-hydroxysuccinimide ester)); experiment: ELISA; phage ELISA: desthio-biotinilated Syt-1(97-421) immobilised overnight at 4°C on MaxiSorp plate; 25 μl phage supernatant in 5% skim milk PBS-T, 1 h RT; detected with anti-M13-HRP; conditions: one partner purified
T1 construct: Synaptotagmin 1, rat, cytosolic domain, amino acids 97-421; The phage-display methods also print Syt-1(197-421) for this antigen; also called rSyt-1(97-421); immobilized cytosolic rSyt-1(97-421); source: E. coli NEB-Express, purified (Ni beads, SUMO protease elution), conjugated to desthiobiotin-NHS ester

[2] = biological target: T2, cytosolic (amino acids 97-421) domain of rat Syt-1 (Rattus norvegicus (Rat)., UniProt P21707); experiment: far-Western, overlay or dot blot; dot blot: ~1 μg target protein spotted on nitrocellulose; NbA51 or NbA91 labeled with AbberiorStar635p at 5 nM in 5% milk PBS-Tween20, 1 h; conditions: both partners purified
T2 construct: Synaptotagmin 1, rat, cytosolic domain, amino acids 97-421; also called rSyt-1(97-421); Syt-1(97-421); source: E. coli NEB-Express, purified (Ni beads, eluted on column with SUMO protease)

[3] = biological target: T3, full-length rat Syt-1 fused to EGFP (Rattus norvegicus (Rat)., UniProt P21707); experiment: immunostaining of cells or tissue; COS-7 cells transfected with Syt1-EGFP, fixed with 4% PFA, permeabilised; 50 nM fluorescent nanobody, 2 h RT; conditions: one partner purified
T3 construct: Synaptotagmin 1, rat, full length; also called Syt1-EGFP; source: COS-7, transiently transfected, in fixed cells

[4] = biological target: T2, cytosolic (amino acids 97-421) domain …; experiment: MST; NbSyt1 labelled with Alexa647 in MST buffer with 0.05 % Tween, incubated with dilutions of purified Syt-1(97-421); NT.115Pico Monolith; conditions: both partners purified

T2 sequence (P21707 97-421): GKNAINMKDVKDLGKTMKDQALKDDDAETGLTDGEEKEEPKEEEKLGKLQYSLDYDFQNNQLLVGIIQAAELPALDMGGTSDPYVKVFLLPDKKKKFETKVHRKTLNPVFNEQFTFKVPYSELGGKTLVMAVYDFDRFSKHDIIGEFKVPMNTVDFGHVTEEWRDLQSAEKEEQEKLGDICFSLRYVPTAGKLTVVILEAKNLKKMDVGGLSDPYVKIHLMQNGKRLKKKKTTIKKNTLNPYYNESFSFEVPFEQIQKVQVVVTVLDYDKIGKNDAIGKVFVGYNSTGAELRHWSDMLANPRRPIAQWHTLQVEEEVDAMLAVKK
T1 sequence (P21707 97-421): as above
T3 sequence (P21707 whole entry, the tested form may be a part): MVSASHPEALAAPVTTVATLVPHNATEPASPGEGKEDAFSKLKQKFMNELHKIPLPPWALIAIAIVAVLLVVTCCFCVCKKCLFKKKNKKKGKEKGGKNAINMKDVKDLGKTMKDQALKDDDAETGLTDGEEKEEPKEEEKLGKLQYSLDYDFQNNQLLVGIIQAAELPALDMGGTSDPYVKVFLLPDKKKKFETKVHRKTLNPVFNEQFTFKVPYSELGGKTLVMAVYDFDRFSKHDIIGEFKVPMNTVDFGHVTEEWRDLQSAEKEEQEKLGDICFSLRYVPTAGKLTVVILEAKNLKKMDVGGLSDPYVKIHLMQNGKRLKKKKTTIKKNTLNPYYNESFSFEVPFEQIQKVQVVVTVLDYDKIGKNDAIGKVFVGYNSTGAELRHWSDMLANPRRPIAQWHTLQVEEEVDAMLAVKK

B1: clone A91 displayed on phage (VHH)
VHH: EVQLVESGGGLVQPGGSLRLSCVASGFPFSKYFMSWVRQAPGKGLEWVSTISSSGSTTTYTESVKGRFTISRDNAKNTLYLQMNNLKPEDTAVYYCEKGSWAPNNARGQGTQVS
notes: alpaca nanobody clone A91; One of the five clones positive in the phage ELISA; the fusion partner on the phage is surmised from the phagemid; also called NbA91
[1]
  binding result: binds

B2: NbA91 directly labeled with AbberiorStar635p (VHH)
VHH: B1 VHH
notes: alpaca nanobody clone A91; with one or two ectopic cysteines (at the C-terminus or at N- and C-termini); also called Nb-Ab635p
[2]
  binding result: binds
[3]
  binding result: binds

B3: NbSyt1 labelled with Alexa647 (VHH)
VHH: EVQLEESGGGLVRPGGSLRLSCAASGFPFSKYFMSWVRQAPGKGLEWVSTISASGNYETYTESVKGRFTIARDNAKNTLYLQMNSLKPEDTAVYYCAKGSWARDMTRGQGTQVTVSS
notes: also called Fluorescent NbSyt1; source: E. coli SHuffle Express (NEB), purified (Ni beads, SUMO protease elution), labelled with maleimide fluorophore
[4]
  Kd: 0.7 ± 0.3 nM
